Legend:
ParA2 (Vibrio cholerae) = assay: EMSA
[1] = target: Vibrio cholerae chromosome 2 ParA2 (Vibrio cholerae); assay: SEC-MALS

| Substance | Kd (ParA2 (Vibrio cholerae)) | stoichiometry N [1] |
| --- | --- | --- |
| Cy3-62-bp DNA | 1000 nM | – |
| Vibrio cholerae chromosome 2 ParA2 (enzyme) | – | 2 |

— publication doi:10.1101/2021.02.27.433207
